doi:10.64898/2025.12.23.696179 (bioRxiv, 2025)

Target: biotinylated TGPAvi (Galaxea fascicularis (engineered …, biotin on the Avi-tag (enzymatic biotinylation with BirA)))
Assay: BLI

B1: Sb32 (VHH)
VHH: QVQLVESGGGLVQAGGSLRLSCAASGFPVGQQKMTWYRQAPGKEREWVAAITSAGWFTHYADSVKGRFTISRDNAKNTVYLQMNSLKPEDTAVYYCTVKVGAEYAGQGTQVTVSA
- Kd: 26 nM
- koff: 0.014 s⁻¹
- kon: 530000 M⁻¹ s⁻¹
